From patent US20150320860A1 (published 2015)
Substitutions are numbered along the chain they refer to. Blank lines part the entries; values can stand above or below the binder they belong to.

Legend:
[1] = target: T1, Aβ-derived diffusible ligands (ADDLs), soluble oligomers of synthetic Aβ1-42 (UniProt P05067 672-713); experiment: BIACORE (SPR); affinity for Aβ1-40 over affinity for ADDLs
T1 construct: domain: Aβ1-42; number of copies is not fixed; also called synthetic ADDLs; Aβ oligomers

[2] = target: T1, Aβ-derived diffusible ligands (ADDLs), …; experiment: competitive ELISA
Protocol: The plates were incubated for one and half hours at room temperature. Both detection of residual antibody binding and the EC₅₀ calculations were determined as in the one-sided ELISA assay.

[3] = target: T2, biotinylated ADDLs (bADDLs) (UniProt P05067 672-713, N-terminal biotin); experiment: cell-based assay: antibody pre-incubated with 500 nM bADDLs in the presence of excess Aβ monomer, block of bADDL binding to primary neurons
T2 construct: domain: Aβ1-42; Oligomer mixture; copies not fixed
Protocol: (§1) As a control, the same concentration of heat-denatured antibody (98° C. for […]) was mixed with bADDLs. The antibody-bADDL mixtures were incubated in siliconized microcentrifuge tubes (Fischer Scientific, Pittsburgh, Pa.) at 37° C. for one hour with constant end-to-end rotation at a low speed. The mixtures were then applied to primary hippocampal and/or cortical cultures and incubated at 37° C. for one hour. The incubation was terminated by removing the culture medium. Cells were subjected to fixation and post-fixation treatments. Cells were then incubated with streptavidin conjugated with alkaline phosphate (AP) at 4° C. overnight, washed five times with PBS and reacted with the TROPIX CDP-Star chemiluminescent substrate (Life Technologies, Carlsbad, Calif.) at room temperature for 30 minutes. The bADDL binding intensity was measured and recorded with an ENVISION microplate reader (PerkinElmer, Waltham, Mass.).

[4] = target: T1, Aβ-derived diffusible ligands (ADDLs), …; experiment: three-pronged sandwich ELISA (Aβ forms captured by polyclonal M90/1), single antibody concentration; signal on ADDLs over signal on fibrillar Aβ
Protocol: (§2) ELISA. […] Monoclonal antibodies diluted in BSA/TBS were incubated for 90 minutes at room temperature and detected with a VECTASTAIN® ABC kit to mouse IgG. The HRP label was visualized with BIO-RAD peroxidase substrate and read at 405 nm on a Dynex MRX-TC microplate reader.

Aβ1-40 monomer [5] = target: T3, Aβ1-40 monomer (UniProt P05067 672-711); experiment: BIACORE (SPR)
T3 construct: domain: Aβ1-40; also called Aβ40; monomer Aβ (Aβ1-40)

[6] = target: T1, Aβ-derived diffusible ligands (ADDLs), …; experiment: BIACORE (SPR)
Aβ1-40 monomer [7] = target: T3, Aβ1-40 monomer; experiment: KINEXA, equilibrium constant in solution
[8] = target: T1, Aβ-derived diffusible ligands (ADDLs), …; experiment: KINEXA, equilibrium constant in solution
[9] = target: T1, Aβ-derived diffusible ligands (ADDLs), …; experiment: KINEXA; constant for Aβ1-40 over constant for ADDLs
Aβ1-40 monomer [10] = target: T3, Aβ1-40 monomer; experiment: ELISA on coated antigen, chemiluminescence; antibody stored at 40°, 1 month
Protocol: (§3) High protein binding plates (Costar, Corning, Lowell, Mass.), were coated with target ligand in PBS overnight at 4° C. […] One the next day, plates were washed five times with PBS+0.05% TWEEN 20 (Sigma Aldrich, St. Louis, Mo.) and blocked overnight with casein blocking buffer (Thermo Scientific, Waltham, Mass.) and 0.05% TWEEN 20. […] After 2 hours at room temperature incubation, the plates were washed and alkaline phosphatase-conjugated anti-human IgG (ThermoScientific, Waltham, Mass.) was added at 0.08 μg/ml. After 45 minutes at room temperature incubation, the plates were washed and TROPIX CDP-Star chemiluminescent substrate (LIFE TECHNOLOGIES, Carlsbad, Calif.) was added. Luminescence was detected after 30 minutes on an ENVISION microplate reader (PerkinElmer, Waltham, Mass.). Curve fits were completed using […] PRISM software (GraphPad Software, Inc., San Diego, Calif.).

[11] = target: T2, biotinylated ADDLs (bADDLs); experiment: as above
Protocol: as §3

Aβ1-42 monomer = target: T4, Aβ1-42 monomer (UniProt P05067 672-713); experiment: ELISA; IgG2
T4 construct: domain: Aβ1-42

[12] = target: T1, Aβ-derived diffusible ligands (ADDLs), …; experiment: ELISA; IgG2
Aβ1-40 monomer [13] = target: T3, Aβ1-40 monomer; experiment: ELISA on coated antigen, chemiluminescence; antibody stored at 25°, 1 month
Protocol: as §3

[14] = target: T2, biotinylated ADDLs (bADDLs); experiment: as above
Protocol: as §3

Aβ1-40 monomer [15] = target: T3, Aβ1-40 monomer; experiment: one-sided ELISA, Aβ1-40 coated at 100 pmol/well (FIG. 7A)
Protocol: (§4) EC₅₀ represents the half-maximal total Aβ oligomer binding. […] Next day, plates were washed five times with PBS+0.05% TWEEN 20 and blocked overnight with casein blocking buffer (Thermo Scientific, Waltham, Mass.) and 0.05% TWEEN 20. […] After two hours at room temperature incubation, the plates were washed and alkaline phosphatase-conjugated anti-human IgG (ThermoScientific, Waltham, Mass.) was added at 0.08 μg/ml. After incubation for 45 minutes at room temperature, the plates were washed and TROPIX CDP star (Applied Biosystems, Foster City, Calif.) was added. Luminescence was detected after […] on an ENVISION plate reader (PerkinElmer, Waltham, Mass.). Curve fits were completed using GraphPad Prism (GraphPad Software, Inc., San Diego, Calif.) software.

[16] = target: T1, Aβ-derived diffusible ligands (ADDLs), …; experiment: one-sided ELISA (FIG. 7A)
Protocol: as §4

[17] = target: T1, Aβ-derived diffusible ligands (ADDLs), …; experiment: one-sided ELISA, Aβ oligomers coated at 50 pmol/well (FIG. 7A)
Protocol: as §4

[18] = target: T2, biotinylated ADDLs (bADDLs); experiment: cell-based assay: antibody pre-incubated with 500 nM bADDLs, block of bADDL binding to primary neurons
Protocol: as §1

Aβ1-40 monomer [19] = target: T3, Aβ1-40 monomer; experiment: ELISA on coated antigen, chemiluminescence; antibody stored at 4°, 1 month
Protocol: as §3

[20] = target: T2, biotinylated ADDLs (bADDLs); experiment: as above
Protocol: as §3

Aβ1-40 monomer [21] = target: T3, Aβ1-40 monomer; experiment: ELISA on coated antigen, chemiluminescence; antibody at 0 timepoint
Protocol: as §3

[22] = target: T2, biotinylated ADDLs (bADDLs); experiment: as above
Protocol: as §3

[23] = target: T1, Aβ-derived diffusible ligands (ADDLs), …; experiment: three-pronged sandwich ELISA (Aβ forms captured by polyclonal M90/1), single antibody concentration; signal on ADDLs over signal on monomer Aβ
Protocol: as §2

B2: antibody 19.3 N33T (antibody, IgG2, V domains shown)
VH: EVQLVESGGGLVQPGGSLRLSCAASGFTFSSFGMHWVRQAPGKGLEWVAYISRGSSTIYYADTVKGRFTISRDNAKNSLYLQMNSLRAEDTAVYYCARGITTALDYWGQGTLVTVSS
VL: DVVMTQSPLSLPVTPGEPASISCRSSQSIVHSTGNTYLEWYLQKPGQSPQLLIYKASNRFSGVPDRFSGSGSGTDFTLKISRVEAEDVGVYYCFQGSRLGPSFGQGTKLEIL
notes: also called 19.3T33
EC50 (Aβ1-40 monomer [10]): 96.3 nM
EC50 [11]: 23.5 nM
EC50 (Aβ1-42 monomer): 244 nM
EC50 [12]: 3.1 nM
EC50 [14]: 15.7 nM
EC50 (Aβ1-40 monomer [19]): 307 nM
EC50 [20]: 11.6 nM
EC50 (Aβ1-40 monomer [21]): 332 nM
EC50 [22]: 15.5 nM

B3: antibody 19.3 N33D (antibody, V domains shown)
VH: B2 VH
VL: B2 VL with T33D
notes: Made as a control
EC50 (Aβ1-42 monomer): 28 nM
EC50 [12]: 0.82 nM

B5: humanized anti-ADDL antibody h3B3 (antibody, V domains shown)
VH: B2 VH
VL: B2 VL with T33N, R98H, L99V, G100P, S102T, L112K
notes: Parental humanized antibody; also called humanized 3B3; h3B3 (parental)
Kd (Aβ1-40 monomer [5]): 105 nM
Kd (Aβ1-40 monomer [7]): 45 nM

Further binders by falling EC50 (Aβ1-42 monomer), results first:

EC50 (Aβ1-40 monomer [10]): 29.9 nM
EC50 [11]: 10.1 nM
EC50 (Aβ1-42 monomer): 150 nM
EC50 [12]: 1.7 nM
EC50 (Aβ1-40 monomer [13]): 24.3 nM
EC50 [14]: 12.8 nM
EC50 (Aβ1-40 monomer [19]): 59.1 nM
EC50 [20]: 8.6 nM
EC50 (Aβ1-40 monomer [21]): 55.1 nM
EC50 [22]: 7.8 nM
B4: antibody 19.3 N33S (antibody, IgG2, V domains shown)
VH: B2 VH
VL: B2 VL with T33S
notes: also called 19.3S33

Ratio (Aβ monomer/ADDL) [1]: 31
fold higher concentration of Aβ1-40 than of Aβ oligomers needed to displace 50% of 19.3 [2]: ~600 fold
IC50 [3]: 15.3 nM
ADDL:Fibrillar binding ratio [4]: 2
Kd (Aβ1-40 monomer [5]): 150 nM
Kd [6]: 4.8 nM
Kd (Aβ1-40 monomer [7]): 16.7 nM
Kd [8]: 2.7 nM
Ratio (Aβ monomer/ADDL) [9]: 6.2
EC50 (Aβ1-40 monomer [10]): 88.8 nM
EC50 [11]: 5.9 nM
EC50 (Aβ1-42 monomer): 18 nM
EC50 [12]: 0.8 nM
EC50 (Aβ1-40 monomer [13]): 22.1 nM
EC50 [14]: 2.1 nM
EC50 (Aβ1-40 monomer [15]): ~4.3 nM
fold greater potency for Aβ oligomers than for Aβ40 monomer [16]: ~3.7 fold
EC50 [17]: ~1.7 nM
IC50 [18]: 15.4 nM
EC50 (Aβ1-40 monomer [19]): 16.3 nM
EC50 [20]: 1.7 nM
EC50 (Aβ1-40 monomer [21]): 10.1 nM
EC50 [22]: 1.1 nM
ADDL:Monomer binding ratio [23]: 2.5
B1: anti-ADDL antibody 19.3 (antibody, V domains shown)
VH: B2 VH
VL: DVVMTQSPLSLPVTPGEPASISCRSSQSIVHSNGNTYLEWYLQKPGQSPQLLIYKASNRFSGVPDRFSGSGSGTDFTLKISRVEAEDVGVYYCFQGSRLGPSFGQGTKLEIKR
notes: copies: 2 + 2
